The values that follow come from PMC7197785 (PLoS Pathogens, 2020).

Test [1] deals with HisEhC2B121 (E. histolytica). Kind of test: ITC.
Test [2] concerns the target T1, MBPEhC2BHis (E. histolytica, UniProt C4M344 1-208).
T1 construct: also called EhC2B full-length; not shown: MBP, N-terminal, kept; His-tag, C-terminal, kept
T1 sequence: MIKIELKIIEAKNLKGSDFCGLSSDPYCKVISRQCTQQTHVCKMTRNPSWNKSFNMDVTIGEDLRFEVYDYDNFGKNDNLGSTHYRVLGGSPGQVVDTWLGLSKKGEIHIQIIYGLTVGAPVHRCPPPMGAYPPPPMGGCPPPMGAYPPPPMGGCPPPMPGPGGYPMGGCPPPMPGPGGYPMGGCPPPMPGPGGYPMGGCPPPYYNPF
Nature of the test: ITC. To be noted: both partners purified.

B1: GSTEhRab21 (enzyme)
chain: MENEFKVVLLGEGKVGKTSMILRYTQNFFTPEEGPRTTQASYVSKTLNIDKNDYIINIWDTAGQEKYQALTPIYYRDSQGAILVYDITEPRSFQRVQTEVDNIRDMLGDSCCIVIVGNKMDLVQQRKISKEEADKYAESVKAIHYLCSCATGDGISDVFEGLTKQMVDKRKSLGDDELFDRKKSTLVFQDDKNNTRQAKSDCC
notes: also called GppNHp-GSTEhRab21; GDP-GSTEhRab21; source: recombinant, purified
In the case of B1, in test [1], the Ka worked out at 9.6e+06 M⁻¹, the dH was -15.6 kcal/mol and the stoichiometry N was 1. In addition, in test [2], the Ka was 1.24e+07 M⁻¹, the dH is -9.23 kcal/mol and the “stoichiometry N” value is 1.
